Laboratory results taken from patent US20210139581A1 (Alector, published 2021).
Read-outs that look alike come from different tables or passages of the source.

What was measured:
[1] = molecular target: T1, human CD33 on primary human monocyte-derived dendritic cells (human, UniProt P20138 18-364); assay: cell-based or functional assay
human CD33 [2] = molecular target: T2, human CD33 (human, UniProt P20138 18-259, limits assumed); assay: BLI (ForteBio), Fab 100 nM on immobilized CD33
T2 construct: Human CD33 immobilized on the BLI sensor tip or the BIAcore C1 chip; also called Siglec-3
T2 sequence (P20138 18-259 limits assumed): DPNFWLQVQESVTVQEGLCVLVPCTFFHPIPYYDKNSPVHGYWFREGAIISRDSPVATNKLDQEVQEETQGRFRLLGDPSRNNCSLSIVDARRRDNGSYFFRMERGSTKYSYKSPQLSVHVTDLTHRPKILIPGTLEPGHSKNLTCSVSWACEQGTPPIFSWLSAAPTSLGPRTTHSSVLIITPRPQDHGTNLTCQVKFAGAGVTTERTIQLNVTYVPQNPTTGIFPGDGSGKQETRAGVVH

human CD33 [3] = molecular target: T2, human CD33; assay: BLI (ForteBio), Fab 100 nM on immobilized CD33; kon/koff columns printed 3 rows too low, assigned by koff/kon = printed KD of AB-63.4
Protocol: (§1) The affinities (KD) of the humanized antibodies for human CD33 were measured for each antibody by BioLayer Interferometry in a ForteBio assay according to standard techniques (Estep et al. (2013) MAbs 5(2): 270-8). […] The assay was carried out at room temperature.
(§2) The affinities of AB-H14 and its affinity-matured variants (Table 15) and AB-H63 and its affinity-matured variants (Table 16), for human CD33 were measured by Fortebio assay according to the method described in Example 1 above.

[4] = molecular target: T1, human CD33 on primary human …; assay: cell-based or functional assay; remark: listed apart in the source
[5] = molecular target: T1, human CD33 on primary human …; assay: cell-based or functional assay; remark: listed apart in the source
[6] = molecular target: T1, human CD33 on primary human …; assay: cell-based or functional assay; remark: listed apart in the source
human CD33 [7] = molecular target: T2, human CD33; assay: SPR (BIAcore), Fab over CD33 on C1 chip
Protocol: The affinity parameters for 10 of the 88 humanized antibodies (AB-H1, AB-H3, AB-H6, AB-H11, AB-H22, AB-H24, AB-H26, AB-H63, AB-H64, and AB-H71) were measured in a separate experiment by a more sensitive technique, surface plasmon resonance (BIAcore), and compared to Chimeric Ab and Chimeric Ab #2. BIAcore measurements were performed as follows: human CD33 was immobilized on the surface of a C1 chip, and Fabs were injected for 300 s to monitor association, followed by a 900 s flow in running buffer to monitor dissociation. The Fabs were measured at 5 concentrations: a high concentration of 27 nM and 3-fold serial dilutions.
In a separate experiment, as determined by the more sensitive BIAcore technique, affinity parameters of affinity matured antibodies derived from the humanized antibody AB-H64 were measured and were directly compared to that of the Chimeric Ab, according to the method described in Example 1 above.

human CD33 [8] = molecular target: T2, human CD33; assay: BLI (ForteBio), Fab 100 nM on immobilized CD33; remark: listed apart in the source
Protocol: as §1
The affinities of AB-H64 and its variants (Table 5) for human CD33 were measured by Fortebio assay according to the method described in Example 1 above.

human CD33 [9] = molecular target: T2, human CD33; assay: BLI (ForteBio), Fab 100 nM on immobilized CD33; remark: listed apart in the source
In short: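 Affinity (KD) determined at room temperature by BioLayer Interferometry, Fab at 100 nM binding immobilized human CD33.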

human CD33 [10] = molecular target: T2, human CD33; assay: ligand-blocking red blood cell solid adhesion assay: antibody pre-incubated on plate-bound CD33-Fc, then binding of red blood cells (sialic acid-containing CD33 ligands) read as peroxidase activity (TMB, 450 nm), relative to no antibody; blocked ligand: CD33 ligands on red blood cells
Protocol: The affinity matured antibody, AB-64.1 and two of its variants, AB-64.1.2 and AB-64.1.8, were evaluated for their ability to compete with CD33 ligand for binding to CD33 using a red blood cell (RBC) solid adhesion assay, according to standard protocols (Kelm, et al. Current Biology, 1994). Red blood cells are highly decorated with glycoproteins containing sialic acids; therefore the ability of an antibody to block RBC binding to immobilized CD33 was used to determine ligand interference. Briefly, 96-well Immunolon plates were coated overnight with 5 μg/mL CD33-Fc, then were washed with PBS and blocked for one hour with binding buffer (PBS containing 0.25% BSA and 1 mM CaCl₂)). CD33 antibodies were added and incubated for one hour at room temperature with gentle rocking. After removal of unbound antibody, RBCs were added to each well at 3.0×10⁶ cells/mL and incubated at room temperature for one hour. Unbound RBCs were then carefully removed by washing three times with PBS, after which water was added to each well to induce hypotonic lysis of bound RBCs. The plate was transferred to −80° C. for 10 minutes, followed by 37° C. for 15 minutes. Quantification of bound RBCs was measured as peroxidase activity by adding TMB, followed by the addition of 2N sulfuric acid to stop the reaction. Signal was detected at 450 nm. Data was calculated as a percentage of RBC binding to plate-bound CD33-Fc in the absence of antibody.

human CD33 [11] = molecular target: T2, human CD33; assay: BLI (ForteBio), Fab 100 nM on immobilized CD33; kon/koff columns printed 3 rows too low, assigned by koff/kon = printed KD of AB-63.8
Protocol: as §1, §2

[12] = molecular target: T1, human CD33 on primary human …; assay: cell-based or functional assay; remark: listed apart in the source
human CD33 [13] = molecular target: T2, human CD33; assay: BLI (ForteBio), Fab 100 nM on immobilized CD33; kon/koff columns printed 3 rows too low, assigned by koff/kon = printed KD of AB-63.5
Protocol: as §1, §2

human CD33 [14] = molecular target: T2, human CD33; assay: BLI (ForteBio), Fab 100 nM on immobilized CD33; kon/koff columns printed 3 rows too low, assigned by koff/kon = printed KD of AB-63.7
Protocol: as §1, §2

human CD33 [15] = molecular target: T2, human CD33; assay: BLI (ForteBio), Fab 100 nM on immobilized CD33; kon/koff columns printed 3 rows too low, assigned by koff/kon = printed KD of AB-63.6
Protocol: as §1, §2

human CD33 [16] = molecular target: T2, human CD33; assay: BLI (ForteBio), Fab 100 nM on immobilized CD33; kon/koff columns printed 3 rows too low, assigned by koff/kon = printed KD of AB-63.9
Protocol: as §1, §2

T1 sequence (P20138 18-364): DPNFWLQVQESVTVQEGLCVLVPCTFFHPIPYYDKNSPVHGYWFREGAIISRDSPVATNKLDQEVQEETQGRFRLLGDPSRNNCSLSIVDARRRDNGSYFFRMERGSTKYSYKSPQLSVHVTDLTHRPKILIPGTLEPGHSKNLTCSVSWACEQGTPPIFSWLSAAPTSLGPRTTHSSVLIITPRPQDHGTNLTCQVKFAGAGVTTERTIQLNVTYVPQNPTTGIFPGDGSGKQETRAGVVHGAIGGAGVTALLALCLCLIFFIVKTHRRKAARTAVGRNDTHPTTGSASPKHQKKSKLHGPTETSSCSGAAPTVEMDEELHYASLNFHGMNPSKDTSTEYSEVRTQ

B1: AB-63.4 (antibody, V domains shown)
VH: QVQLVQSGAEVKKPGASVKVSCKASGYTFTDYNYHWVRQAPGQGLEWIGFIYPSNGITGYAQKFQGRVTMTVDTSTSTVYMELSSLRSEDTAVYYCARSTVDYFDYWGQGTLVTVSS
VL: DIVLTQSPDSLAVSLGERATINCRASQSVSTSTYSYMHWYQQKPGQPPKLLIKYASNLESGVPDRFSGSGSGTDFTLTISSLQAEDVAVYYCQHSWEIPLTFGQGTKLEIK
Maximal Downregulation (% CD33 remaining) [1]: 17.6%
Receptor downregulation (EC50) [1]: 0.0691 nM
Fold affinity improvement over parental Ab (AB-H63) (human CD33 [2]): 3.79 fold
Kd (human CD33 [2]): 0.718 nM
koff (human CD33 [3]): 0.000581 s⁻¹
kon (human CD33 [3]): 809000 M⁻¹ s⁻¹

B2: AB-64.1 (antibody, V domains shown)
VH: QVQLVQSGAEVKKPGASVKISCKASGYTFTDYNLHWVRQAPGQGLEWIGFIYPSNGITGYAQKFQGRATLTVDNSTSTAYMELSSLRSEDTAVYYCARSDVDYFDYWGQGTLLTVSS
VL: DIVLTQSPDSLAVSLGERATINCRASQSVSTSTYSYMHWYQQKPGQPPKLLIKYASNLESGVPDRFSGSGSGTDFTLTISSLQAEDVAVYYCQHSWEIPLTFGQGTKLEIK
Receptor downregulation (EC50) [4]: 0.0185 nM
Maximal Downregulation (% CD33 remaining) [5]: 27.3%
Receptor downregulation (EC50) [5]: 0.0154 nM
Receptor downregulation (% remaining at 0.16 µg/mL antibody) [6]: 37.2%
Fold Change to AB-H64 (human CD33 [7]): 20.4 fold
Fold Change to Chimeric Ab (human CD33 [7]): 15.4 fold
Kd (human CD33 [7]): 0.105 nM
koff (human CD33 [7]): 0.000485 s⁻¹
kon (human CD33 [7]): 4.61e+06 M⁻¹ s⁻¹
Fold affinity improvement over parental Ab (AB-H64) (human CD33 [8]): 3.23 fold
Kd (human CD33 [8]): 0.885 nM
Kd (human CD33 [9]): 0.499 nM
EC50 (human CD33 [10]): 0.71 nM

B3: AB-63.8 (antibody, V domains shown)
VH: QVQLVQSGAEVKKPGSSVKVSCKASGVTFTDYNYHWVRQAPGQGLEWIGFIYPSNGITGYAQKFQDRVTMTVDTSTSTVYMELSSLRSEDTAVYYCARSTVDYFDYWGQGTLVTVSS
VL: DIVLTQSPDSLAVSLGERATINCRASQDVSTSTYSYMHWYQQKPGQPPKLLIKYASNLESGVPDRFSGSGSGTDFTLTISSLQAEDVAVYYCQHSWEIPLTFGQGTKLEIK
Maximal Downregulation (% CD33 remaining) [1]: 22%
Receptor downregulation (EC50) [1]: 0.0167 nM
Fold affinity improvement over parental Ab (AB-H63) (human CD33 [2]): 12.4 fold
Kd (human CD33 [2]): 0.219 nM
koff (human CD33 [11]): 0.0002 s⁻¹
kon (human CD33 [11]): 913000 M⁻¹ s⁻¹

B4: AB-64.1.2 (antibody, V domains shown)
VH: QVQLVQSGAEVKKPGASVKISCKASGYTFTDYNLHWVRQAPGQGLEWIGFIYPSNRITGYAQKFQGRATLTVDNSTSTAYMELSSLRSEDTAVYYCARSDVDYFDYWGQGTLLTVSS
VL: DIVLTQSPDSLAVSLGERATINCRASQSVSTSTYSYMHWYQQKPGQPPKLLIKYASNLESGVPDRFSGSGSGTDFTLTISSLQAEDVAVYYCQHSWEIPLTFGQGTKLEIK
notes: Variant of AB-64.1
fold increase in potency in decreasing cell surface CD33, against AB-H64 [12]: 1.5 fold
fold increase in potency in decreasing cell surface CD33, against Chimeric Ab [12]: 4.6 fold
Maximal Downregulation (% CD33 remaining) [5]: 24.8%
Receptor downregulation (EC50) [5]: 0.0189 nM
Receptor downregulation (% remaining at 0.16 µg/mL antibody) [6]: 32.4%
Fold Change to AB-H64 (human CD33 [7]): 11.6 fold
Fold Change to Chimeric Ab (human CD33 [7]): 8.8 fold
Kd (human CD33 [7]): 0.185 nM
koff (human CD33 [7]): 0.000507 s⁻¹
kon (human CD33 [7]): 2.74e+06 M⁻¹ s⁻¹
Kd (human CD33 [9]): 0.902 nM
EC50 (human CD33 [10]): 0.55 nM

B5: AB-63.5 (antibody, V domains shown)
VH: QVQLVQSGAEVKKPGASVKVSCKASGYTFTDYNNHWVRQAPGQGLEWIGFIYPSNGITGYAQKFQGRVTMTVDTSTSTVYMELSSLRSEDTAVYYCARSDVDYFDYWGQGTLVTVSS
VL: DIVLTQSPDSLAVSLGERATINCRASQSVSTSTYSYMHWYQQKPGQPPKLLIKYASNLESGVPDRFSGSGSGTDFTLTISSLQAEDVAVYYCQHSWEIPLTFGQGTKLEIK
Maximal Downregulation (% CD33 remaining) [1]: 16.5%
Receptor downregulation (EC50) [1]: 0.0401 nM
Fold affinity improvement over parental Ab (AB-H63) (human CD33 [2]): 4.4 fold
Kd (human CD33 [2]): 0.619 nM
koff (human CD33 [13]): 0.000524 s⁻¹
kon (human CD33 [13]): 847000 M⁻¹ s⁻¹

B6: AB-63.7 (antibody, V domains shown)
VH: QVQLVQSGAEVKKPGASVKVSCKASGYTFTDYNLHWVRQAPGQGLEWIGFIYPSNGITGYAQKFQGRVTMTVDTSTSTVYMELSSLRSEDTAVYYCARSTVDYFDYWGQGTLVTVSS
VL: DIVLTQSPDSLAVSLGERATINCRASQDVSTSTYSYMHWYQQKPGQPPKLLIKYAFNLESGVPDRFSGSGSGTDFTLTISSLQAEDVAVYYCQHSWEIPLEFGQGTKLEIK
Maximal Downregulation (% CD33 remaining) [1]: 18.4%
Receptor downregulation (EC50) [1]: 0.0416 nM
Fold affinity improvement over parental Ab (AB-H63) (human CD33 [2]): 2.97 fold
Kd (human CD33 [2]): 0.917 nM
koff (human CD33 [14]): 0.000546 s⁻¹
kon (human CD33 [14]): 596000 M⁻¹ s⁻¹

B7: AB-63.6 (antibody, V domains shown)
VH: QVQLVQSGAEVKKPGASVKVSCKASGYTFTDYNLHWVRQAPGQGLEWIGFIYPSNGITGYAQKFQGRVTMTVDTSTSTVYMELSSLRSEDTAVYYCARSTVDYFDYWGQGTLVTVSS
VL: DIVLTQSPDSLAVSLGERATINCRASQDVSTSTYSYMHWYQQKPGQPPKLLIKYASNLESGVPDRFSGSGSGTDFTLTISSLQAEDVAVYYCQHSWEIPLTFGQGTKLEIK
Maximal Downregulation (% CD33 remaining) [1]: 17.1%
Receptor downregulation (EC50) [1]: 0.0463 nM
Fold affinity improvement over parental Ab (AB-H63) (human CD33 [2]): 8.96 fold
Kd (human CD33 [2]): 0.304 nM
koff (human CD33 [15]): 0.0002 s⁻¹
kon (human CD33 [15]): 658000 M⁻¹ s⁻¹

B8: AB-63.9 (antibody, V domains shown)
VH: QVQLVQSGAEVKKPGASVKVSCKASGYAFTDYNLHWVRQAPGQGLEWIGFIYPSNGITGYAQKFQGRVTMTVDTSTSTVYMELSSLRSEDTAVYYCARSDVDYFDYWGQGTLVTVSS
VL: DIVLTQSPDSLAVSLGERATINCRASQDVSTSTYSYMHWYQQKPGQPPKLLIKYASYLESGVPDRFSGSGSGTDFTLTISSLQAEDVAVYYCEHSWEIPLTFGQGTKLEIK
Maximal Downregulation (% CD33 remaining) [1]: 20.1%
Receptor downregulation (EC50) [1]: 0.0407 nM
Fold affinity improvement over parental Ab (AB-H63) (human CD33 [2]): 10.1 fold
Kd (human CD33 [2]): 0.271 nM
koff (human CD33 [16]): 0.0002 s⁻¹
kon (human CD33 [16]): 738000 M⁻¹ s⁻¹
